Molecular target: recombinant soluble form (ectodomain) of human MERTK (Homo sapiens, UniProt Q12866)
Experiment: SPR

Chain of recombinant soluble form (ectodomain) of human MERTK (Q12866 21-505): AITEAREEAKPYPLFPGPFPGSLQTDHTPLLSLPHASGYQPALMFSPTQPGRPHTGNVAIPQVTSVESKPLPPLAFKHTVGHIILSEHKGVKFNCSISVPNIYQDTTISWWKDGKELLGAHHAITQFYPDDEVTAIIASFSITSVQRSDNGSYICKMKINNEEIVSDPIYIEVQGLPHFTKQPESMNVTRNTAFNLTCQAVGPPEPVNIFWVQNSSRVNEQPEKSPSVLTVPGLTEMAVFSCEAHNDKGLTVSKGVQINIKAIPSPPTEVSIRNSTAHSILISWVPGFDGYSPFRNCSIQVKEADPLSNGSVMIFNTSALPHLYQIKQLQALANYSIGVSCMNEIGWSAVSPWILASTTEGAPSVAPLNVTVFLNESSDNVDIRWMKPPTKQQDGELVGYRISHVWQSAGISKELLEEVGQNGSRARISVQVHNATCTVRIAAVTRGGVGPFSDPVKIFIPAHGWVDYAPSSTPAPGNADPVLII

binding result: binds
B1: recombinant mAb745 (anti-MERTK, variable regions of mAb745 on human IgG1 and kappa constant regions) (antibody, V domains shown)
VH: DVQIQESGPGLVKSSQSLSLTCTVTGYSITNDYAWNWIRQFPGNKLEWMGYISYNGNTFYNPSLKSRISITRDTSKNQFFLQLSSVTTEDTATYYCGRLLPVSYAMDYWGQGTSVTVSS
VL: DVVMTQTPLSLPVSLGDQASISCRSSQSLVHSNGNTYLHWYLQKPGQSPKLLIYKVSNRFSGVPDRFSGSGSGTDFTLKISRVEAEDLGVYFCYQSTHVPWTFGGGTKLEIK
